This note sets out measurements from US20120107364A1 (ACTGEN, published 2012).

Common to all, as to test: flow cytometry on Ba/F3 cells expressing the truncated PODXL2
For orientation: A flow cytometer gives signals particle by particle.

Test [1] addresses T1, PODXL2, positions 1 to 350 (human, UniProt O00592 23-382).
T1 construct: One of the 14 C-terminal truncations; Expressed on Ba/F3 cells; also called R350
T1 sequence: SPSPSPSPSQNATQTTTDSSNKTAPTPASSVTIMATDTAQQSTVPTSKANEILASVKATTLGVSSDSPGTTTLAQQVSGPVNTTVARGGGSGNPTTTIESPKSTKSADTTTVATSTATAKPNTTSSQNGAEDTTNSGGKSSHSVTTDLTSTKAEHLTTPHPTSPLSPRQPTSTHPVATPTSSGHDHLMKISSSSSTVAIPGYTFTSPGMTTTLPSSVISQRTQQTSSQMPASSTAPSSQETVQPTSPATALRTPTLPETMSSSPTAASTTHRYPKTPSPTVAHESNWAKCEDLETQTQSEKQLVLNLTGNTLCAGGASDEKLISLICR
The procedure:
(§1) To each sample of the cell suspension, 50 μl of the hybridoma culture supernatant or 2-μg/ml of the purified antibody (hereinafter, referred to as an “antibody solution”) was added, and the antibody was reacted with the cells. As an isotype control of the antibody solution, a wash buffer containing 2 μg/ml of each of mouse IgG1 (BioLegend, 400412), mouse IgG2a (BioLegend, 400224), and mouse IgG2b (BioLegend, 400324) was used. The hybridoma culture supernatant was reacted with the target cells at room temperature for 30 minutes, followed by centrifugation at 700×g for 2 minutes. Then, a culture supernatant was removed. Further, 100 μl of a wash buffer was added, followed by centrifugation at 700×g for 2 minutes again. A supernatant was removed. Then, the cells were washed.
(§2) Next, to the cell pellets after the washing, 50 μl of Goat anti-mouse IgG, F(ab′) 2-PE (PE=phycoerythrin, Beckman Coulter, IM0855) diluted 200-fold with a wash buffer was added as a secondary antibody for detection, and reacted in the dark at room temperature for 30 minutes. The reaction was followed by centrifugation at 700×g for 2 minutes. A supernatant was removed. Further, 100 μl of a wash buffer was added, followed by centrifugation at 700×g for 2 minutes again. A supernatant was removed. Then, the cells were washed. Thereafter, the cells were suspended in an appropriate amount of a wash buffer. The reactivity between the antibody and the cells was analyzed by a flow cytometer (Beckman Coulter, FC500 MPL).
(§3) Thereafter, by the same method as in Example 1 (4) (the virus packaging and thereafter), Ba/F3 cells containing the PODXL2 gene sequences of various chain lengths were prepared. Further, by the same method as in Example 4, the reactivity between the ACT36-27_{—}5D1 antibody and the Ba/F3 cells expressing the PODXL2 molecules of various chain lengths was analyzed by a flow cytometer (FIG. 10).

Test [2] has as its target T2, PODXL2, positions 1 to 320 (human, UniProt O00592 23-352).
T2 construct: One of the 14 C-terminal truncations; Expressed on Ba/F3 cells; also called R320
T2 sequence: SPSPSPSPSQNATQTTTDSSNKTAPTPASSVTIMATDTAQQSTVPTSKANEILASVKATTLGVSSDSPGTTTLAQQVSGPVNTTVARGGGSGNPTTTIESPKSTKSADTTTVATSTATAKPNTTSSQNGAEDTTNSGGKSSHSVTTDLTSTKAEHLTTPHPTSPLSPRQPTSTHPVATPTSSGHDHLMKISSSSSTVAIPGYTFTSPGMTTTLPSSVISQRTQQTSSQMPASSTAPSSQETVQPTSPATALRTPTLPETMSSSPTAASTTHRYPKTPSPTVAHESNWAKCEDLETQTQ
On the procedure:
as §1, §2, §3

The target in test [3] is T3, PODXL2, positions 1 to 420 (human, UniProt O00592 23-452).
T3 construct: Encoded as positions 1-420 in pMX-SST and expressed on Ba/F3 cells; The vector-encoded part is not described; also called R420
T3 sequence: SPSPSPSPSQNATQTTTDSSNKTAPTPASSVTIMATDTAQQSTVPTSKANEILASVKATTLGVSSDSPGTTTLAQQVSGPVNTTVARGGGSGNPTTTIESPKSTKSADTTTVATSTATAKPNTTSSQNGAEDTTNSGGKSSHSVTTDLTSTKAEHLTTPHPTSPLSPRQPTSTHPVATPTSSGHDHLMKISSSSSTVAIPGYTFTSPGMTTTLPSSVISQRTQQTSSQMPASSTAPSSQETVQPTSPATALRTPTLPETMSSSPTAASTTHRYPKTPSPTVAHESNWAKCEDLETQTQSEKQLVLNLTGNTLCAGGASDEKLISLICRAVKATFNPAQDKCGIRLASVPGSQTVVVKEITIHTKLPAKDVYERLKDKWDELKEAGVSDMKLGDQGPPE
On the procedure: as §1, §2, §3

Test [4] concerns the target T4, PODXL2, positions 1 to 380 (human, UniProt O00592 23-412).
T4 construct: One of the 14 C-terminal truncations; Expressed on Ba/F3 cells; also called R380
T4 sequence: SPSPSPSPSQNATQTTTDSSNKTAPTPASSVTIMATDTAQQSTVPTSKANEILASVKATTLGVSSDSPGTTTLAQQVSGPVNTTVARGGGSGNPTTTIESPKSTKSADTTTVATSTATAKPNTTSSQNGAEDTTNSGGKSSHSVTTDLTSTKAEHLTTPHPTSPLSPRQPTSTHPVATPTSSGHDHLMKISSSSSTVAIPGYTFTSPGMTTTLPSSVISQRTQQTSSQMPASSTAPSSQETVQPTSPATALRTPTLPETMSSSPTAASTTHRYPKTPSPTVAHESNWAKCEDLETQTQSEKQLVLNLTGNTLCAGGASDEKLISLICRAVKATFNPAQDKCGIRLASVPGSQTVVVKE
On the procedure: as §1, §2, §3

Test [5] addresses T5, PODXL2, positions 1 to 370 (human, UniProt O00592 23-402).
T5 construct: One of the 14 C-terminal truncations; Expressed on Ba/F3 cells; also called R370
T5 sequence: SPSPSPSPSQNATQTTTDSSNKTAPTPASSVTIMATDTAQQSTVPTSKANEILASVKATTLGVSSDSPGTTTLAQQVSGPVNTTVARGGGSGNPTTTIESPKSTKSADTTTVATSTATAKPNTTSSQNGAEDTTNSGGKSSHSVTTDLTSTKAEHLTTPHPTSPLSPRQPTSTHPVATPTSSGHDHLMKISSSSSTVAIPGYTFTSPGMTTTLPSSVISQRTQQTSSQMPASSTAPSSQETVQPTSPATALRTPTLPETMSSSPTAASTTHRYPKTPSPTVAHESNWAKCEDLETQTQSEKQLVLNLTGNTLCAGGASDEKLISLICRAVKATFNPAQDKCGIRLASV
The procedure: as §1, §2, §3

B1: ACT36-27-5D1 antibody (antibody, V domains shown)
VH: EVQLQQSGPELVKPGASVKMSCKASGYTFTSYVMHWVKQKPGQGLEWIGYIHPYNDGIKYNEKFKGKATLTSDKSSSTAYMDLSSLTSEDSAVYYCARSWDWYFDVWAAGTTVTVSS
VL: QIVLTQSPAIMSASPGEKVSMTCSASSSVSYMHWYQQKSGTSPKRWIYDTSKLASGVPARFSGSGSGTSYSLTISSMEAEDAATYYCLQWSSNPPTFGGGTKLE
notes: also called anti-PODXL2 antibody ACT36-27-5D1; anti-ACT36-27-5D1 monoclonal antibody
Turning to B1, the binding result in test [1] is given as “no binding”; in test [2], “no binding”; in test [3] it was “binds”; in test [4], “no binding”; in test [5], “no binding”.
